These are literature values, as cited in paper PMC3461832.

For series [1], the target named is fibrinogen Bβ chain 6-20 (Homo sapiens) (UniProt P02675).
Series [2] addresses fibrinogen Bβ chain peptide β1-25 1-25 (Homo sapiens) (UniProt P02675).

UniProt P02675, sequence (P02675 1-25): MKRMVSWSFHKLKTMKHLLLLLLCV

Consider SdrG (from UniProt Q9KI13), for which the Kd in series [1] is 90 nM; in series [2], 140 nM.

In general, Kd refers to the constant that tells how readily two partners part at equilibrium.
